Laboratory results as given in PMC5109294, “NANOG reprograms prostate cancer cells to castration resistance via dynamically repressing and engaging the AR/FOXA1 signaling axis”.

Target: T1, FOXA1 (Homo sapiens, UniProt P55317 1-472)
T1 sequence: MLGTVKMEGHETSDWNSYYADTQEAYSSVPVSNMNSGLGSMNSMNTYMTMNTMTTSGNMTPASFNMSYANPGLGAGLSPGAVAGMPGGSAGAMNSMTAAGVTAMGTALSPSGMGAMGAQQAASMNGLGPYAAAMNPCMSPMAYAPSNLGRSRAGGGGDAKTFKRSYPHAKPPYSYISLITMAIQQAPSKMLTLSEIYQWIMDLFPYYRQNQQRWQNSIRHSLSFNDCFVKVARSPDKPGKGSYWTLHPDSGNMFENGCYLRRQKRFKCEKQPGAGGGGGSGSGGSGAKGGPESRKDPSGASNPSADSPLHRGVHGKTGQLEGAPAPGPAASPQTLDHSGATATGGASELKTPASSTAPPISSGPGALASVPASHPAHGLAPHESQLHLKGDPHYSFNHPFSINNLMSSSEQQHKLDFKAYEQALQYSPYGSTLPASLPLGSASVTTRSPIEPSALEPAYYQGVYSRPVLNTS
Assay: EMSA; 100 ng protein; competed by 300x unlabeled probe; weaker than NP8 at 1:1; LightShift Chemiluminescent EMSA kit; probe annealed in 20 mM Tris-HCl pH 7.5, 150 mM NaCl; 4-20% native gel, 0.5X TBE; binding buffer and temperature not stated
Settings: protein: recombinant; tags: GST (pGEX-6p-1); label: biotin (both strands); blunt; some single-stranded primer remains after annealing

B1: FOXA1 motif probe, UBE2C gene promoter (dsDNA)
DNA 1: CTTAGTGTTTATTTCAAGCT
DNA 2: AGCTTGAAATAAACACTAAG
B1: binds.
